Where two headings read alike, the source gives them in different places. Where no end group is shown, it is not given here. The star is where a group is joined. Biotin = O=C1N[C@H]2[C@H](CS[C@H]2CCCCC(=O)*)N1; TTDS = NCCCOCCOCCOCCCNC(=O)CCC(=O)*
Tests used:
[1] = molecular target: T1, MBP-fused PDZ domain of SNX27 (human, UniProt Q96L92 43-136); test: fluorescence polarisation
[2] = molecular target: T2, MBP-fused PDZ domain of MAST1 (human, UniProt Q9Y2H9 967-1055); test: fluorescence polarisation
T2 sequence (looked up): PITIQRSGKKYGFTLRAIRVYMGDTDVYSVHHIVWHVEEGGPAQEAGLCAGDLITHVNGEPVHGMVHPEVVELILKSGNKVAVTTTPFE

[3] = molecular target: T3, MBP-fused PDZ domain of SNTB1 (human, UniProt Q13884 112-195); test: fluorescence polarisation
T3 sequence (looked up): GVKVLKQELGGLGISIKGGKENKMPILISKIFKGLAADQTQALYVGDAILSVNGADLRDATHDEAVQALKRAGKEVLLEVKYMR

[4] = molecular target: T4, MBP-fused PDZ domain 2 of GRID2IP (human, UniProt A4D2P6 279-356); test: fluorescence polarisation
T4 sequence (A4D2P6 279-356): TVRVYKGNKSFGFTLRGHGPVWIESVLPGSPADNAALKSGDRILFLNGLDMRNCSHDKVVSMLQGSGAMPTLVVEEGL

[5] = molecular target: T5, MBP-fused PDZ domain of SNTG2 (human, UniProt Q9NY99 73-156); test: fluorescence polarisation
T5 sequence (looked up): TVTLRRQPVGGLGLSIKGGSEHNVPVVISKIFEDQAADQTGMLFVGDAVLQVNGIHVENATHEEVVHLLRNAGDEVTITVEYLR

[6] = molecular target: T6, MBP-fused PDZ domain of MAST2 (human, UniProt Q6P0Q8 1104-1192); test: fluorescence polarisation
T6 sequence (looked up): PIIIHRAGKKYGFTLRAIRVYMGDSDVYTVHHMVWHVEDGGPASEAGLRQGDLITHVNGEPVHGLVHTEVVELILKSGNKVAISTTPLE

[7] = molecular target: T7, MBP-fused PDZ domain of HTRA1 (human, UniProt Q92743 365-467); test: fluorescence polarisation
T7 sequence (Q92743 365-467): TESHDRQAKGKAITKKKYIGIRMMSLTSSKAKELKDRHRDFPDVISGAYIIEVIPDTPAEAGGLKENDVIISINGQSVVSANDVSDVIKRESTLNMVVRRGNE

[8] = molecular target: T8, MBP-fused PDZ domain 3 of PDZD7 (human, UniProt Q9H5P4 862-934); test: fluorescence polarisation
T8 sequence (looked up): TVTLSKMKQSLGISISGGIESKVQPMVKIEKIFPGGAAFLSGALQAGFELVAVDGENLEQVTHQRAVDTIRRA

[9] = molecular target: T9, MBP-fused PDZ domain of SNTA1 (human, UniProt Q13424 87-170); test: fluorescence polarisation
T9 sequence (looked up): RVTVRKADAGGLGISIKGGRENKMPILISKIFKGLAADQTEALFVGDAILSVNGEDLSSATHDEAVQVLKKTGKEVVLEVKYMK

[10] = molecular target: T10, MBP-fused PDZ domain 1 of PARD3B (human, UniProt Q8TEW8 201-289); test: fluorescence polarisation
T10 sequence (looked up): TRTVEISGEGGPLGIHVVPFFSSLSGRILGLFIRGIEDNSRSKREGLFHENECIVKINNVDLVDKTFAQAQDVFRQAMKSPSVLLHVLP

[11] = molecular target: T3, MBP-fused PDZ domain of SNTB1; test: SPR
[12] = molecular target: T11, MBP-fused PDZ domain of SYNJ2BP (human, UniProt P57105 13-100); test: SPR
T11 sequence (looked up): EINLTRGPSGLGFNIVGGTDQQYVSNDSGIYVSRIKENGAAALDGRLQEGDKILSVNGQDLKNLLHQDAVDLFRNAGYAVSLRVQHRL

[13] = molecular target: T6, MBP-fused PDZ domain of MAST2; test: SPR
[14] = molecular target: T12, MBP-fused PDZ domain 1 of NHERF3 (human, UniProt Q5T2W1 9-90); test: SPR
T12 sequence (looked up): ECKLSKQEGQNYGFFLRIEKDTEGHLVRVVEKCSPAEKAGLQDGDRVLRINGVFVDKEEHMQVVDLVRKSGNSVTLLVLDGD

[15] = molecular target: MBP-fused second PDZ domain of MAGI1 (human, UniProt Q96QZ7 472-554); test: SPR
Chain of MBP-fused second PDZ domain of MAGI1 (Q96QZ7 472-554): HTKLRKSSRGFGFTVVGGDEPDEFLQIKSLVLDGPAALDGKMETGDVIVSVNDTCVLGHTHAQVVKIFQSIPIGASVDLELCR

[16] = molecular target: T13, MBP-fused PDZ domain 1 of PDZRN3 (human, UniProt Q9UPQ7 249-339); test: SPR
T13 sequence (looked up): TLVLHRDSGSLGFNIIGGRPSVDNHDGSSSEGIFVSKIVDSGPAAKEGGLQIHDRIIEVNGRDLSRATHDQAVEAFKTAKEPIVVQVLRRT

[17] = molecular target: T14, MBP-fused PDZ domain 2 of MAGI2 (human, UniProt Q86UL8 426-510); test: SPR
T14 sequence (Q86UL8 426-510): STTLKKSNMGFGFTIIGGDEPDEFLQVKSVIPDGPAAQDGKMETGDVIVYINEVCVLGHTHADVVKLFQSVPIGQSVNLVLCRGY

[18] = molecular target: T9, MBP-fused PDZ domain of SNTA1; test: SPR
[19] = molecular target: T15, MBP-fused PDZ domain of ARHGEF12 (human, UniProt Q9NZN5 72-151); test: SPR
T15 sequence (looked up): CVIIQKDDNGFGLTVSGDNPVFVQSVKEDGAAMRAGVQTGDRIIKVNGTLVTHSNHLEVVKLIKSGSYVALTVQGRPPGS

[20] = molecular target: T16, MBP-fused PDZ domain 1 of PDZRN4 (human, UniProt Q6ZMN7 224-314); test: SPR
T16 sequence (looked up): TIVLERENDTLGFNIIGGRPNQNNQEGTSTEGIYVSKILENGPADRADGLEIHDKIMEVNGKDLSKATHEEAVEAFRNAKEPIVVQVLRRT

[21] = molecular target: T17, biotinylated RSK1 725-735 peptide, unphosphorylated (human, UniProt Q15418 725-735); test: holdup assay
T17 peptide (looked up): {Biotin-TTDS}-RRVRKLPSTTL

[22] = molecular target: T1, MBP-fused PDZ domain of SNX27; test: fluorescence polarisation; remark: listed apart in the source
[23] = molecular target: T2, MBP-fused PDZ domain of MAST1; test: fluorescence polarisation; remark: listed apart in the source
[24] = molecular target: T3, MBP-fused PDZ domain of SNTB1; test: fluorescence polarisation; remark: listed apart in the source
[25] = molecular target: T4, MBP-fused PDZ domain 2 of GRID2IP; test: fluorescence polarisation; remark: listed apart in the source
[26] = molecular target: T5, MBP-fused PDZ domain of SNTG2; test: fluorescence polarisation; remark: listed apart in the source
[27] = molecular target: T11, MBP-fused PDZ domain of SYNJ2BP; test: fluorescence polarisation
[28] = molecular target: T6, MBP-fused PDZ domain of MAST2; test: fluorescence polarisation; remark: listed apart in the source
[29] = molecular target: T12, MBP-fused PDZ domain 1 of NHERF3; test: fluorescence polarisation
[30] = molecular target: T7, MBP-fused PDZ domain of HTRA1; test: fluorescence polarisation; remark: listed apart in the source
[31] = molecular target: T13, MBP-fused PDZ domain 1 of PDZRN3; test: fluorescence polarisation
[32] = molecular target: T14, MBP-fused PDZ domain 2 of MAGI2; test: fluorescence polarisation
[33] = molecular target: T8, MBP-fused PDZ domain 3 of PDZD7; test: fluorescence polarisation; remark: listed apart in the source
[34] = molecular target: T9, MBP-fused PDZ domain of SNTA1; test: fluorescence polarisation; remark: listed apart in the source
[35] = molecular target: T15, MBP-fused PDZ domain of ARHGEF12; test: fluorescence polarisation
[36] = molecular target: T16, MBP-fused PDZ domain 1 of PDZRN4; test: fluorescence polarisation
[37] = molecular target: T10, MBP-fused PDZ domain 1 of PARD3B; test: fluorescence polarisation; remark: listed apart in the source

B1: RSK1 683-735 peptide, unphosphorylated (peptide, UniProt Q15418 683-735, looked up)
peptide: QSQLSHQDLQLVKGAMAATYSALNSSKPTPQLKPIESSILAQRRVRKLPSTTL
Kd [1]: 185 ± 25 µM
Kd [2]: 5 ± 1 µM
Kd [3]: 37 ± 6 µM
Kd [4]: 1.7 ± 0.3 µM
Kd [5]: 24 ± 12 µM
Kd [6]: 19 ± 7 µM
Kd [7]: 19 ± 3 µM
Kd [8]: 4 ± 1 µM
Kd [9]: 81 ± 17 µM
Kd [10]: 45 ± 7 µM

RSSRTRRETQL (not fully specified (N-terminus); also: biotinylated, position not given here) [biotinylated HPV16 E6 peptide]
Kd [11]: 27 ± 4 µM
Kd [12]: 33 ± 4 µM
Kd [13]: 2.5 ± 0.2 µM
Kd [14]: 23 ± 3 µM
Kd [15]: 3.4 ± 0.8 µM
Kd [16]: 8.6 ± 1.6 µM
Kd [17]: 2.9 ± 0.14 µM
Kd [18]: 101 ± 40 µM
Kd [19]: 10.9 ± 1.4 µM
Kd [20]: 6 ± 1.5 µM

B2: first PDZ domain of Scribble (domain or fragment)
chain: not shown
Kd [21]: 60 to 70 µM

KLPSTTL (peptide, UniProt Q15418 729-735, looked up, also: fluorescein labeled, site not given here) [fluorescein labeled RSK1 729-735 peptide, unphosphorylated]
Kd [22]: 25 ± 6 µM
Kd [23]: 26 ± 4 µM
Kd [24]: 18 ± 2 µM
Kd [25]: 5.1 ± 0.4 µM
Kd [26]: 65 ± 2 µM
Kd [27]: 39 ± 2 µM
Kd [28]: 7.9 ± 0.6 µM
Kd [29]: 80 ± 20 µM
Kd [30]: 30 ± 2 µM
Kd [31]: 90 ± 25 µM
Kd [32]: 420 ± 30 µM
Kd [33]: 0.8 ± 0.05 µM
Kd [34]: 41 ± 11 µM
Kd [35]: 7.5 ± 0.8 µM
Kd [36]: 33 ± 5 µM
Kd [37]: 27 ± 3 µM

KLPSTTL (peptide, UniProt Q15418 729-735, looked up, phosphorylated; fluorescein labeled) [fluorescein labeled RSK1 729-735 peptide, phosphorylated]
Kd [22]: 4.4 ± 0.4 µM
Kd [23]: 34 ± 8 µM
Kd [24]: 1.5 ± 0.1 µM
Kd [25]: 47 ± 15 µM
Kd [26]: 24 ± 2 µM
Kd [27]: 16 ± 1 µM
Kd [28]: 13 ± 2 µM
Kd [29]: 220 ± 30 µM
Kd [30]: 11.3 ± 0.4 µM
Kd [31]: 17.5 ± 1.4 µM
Kd [32]: 430 ± 45 µM
Kd [33]: 1.8 ± 0.1 µM
Kd [34]: 4.9 ± 0.4 µM
Kd [35]: 29 ± 8 µM
Kd [36]: 14 ± 2 µM
Kd [37]: 6.8 ± 0.5 µM
